Source: publication PMC9482650, “Quantitative fragmentomics allow affinity mapping of interactomes” (Nature Communications, 2022)

T1: PDZD2_5, O15018
T1 sequence (O15018 2617-2716, limits assumed, looked up): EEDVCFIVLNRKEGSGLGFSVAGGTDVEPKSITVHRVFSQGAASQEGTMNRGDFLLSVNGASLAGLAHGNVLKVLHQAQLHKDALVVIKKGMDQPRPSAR

T2: PARD6B, Q9BYG5
T2 sequence (Q9BYG5 152-260, limits assumed, looked up): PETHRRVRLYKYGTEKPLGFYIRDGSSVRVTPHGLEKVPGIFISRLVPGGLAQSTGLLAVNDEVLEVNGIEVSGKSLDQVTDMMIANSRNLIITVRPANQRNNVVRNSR

T3: SYNPO2L, Q9H987
T3 sequence (Q9H987 1-98, limits assumed, looked up): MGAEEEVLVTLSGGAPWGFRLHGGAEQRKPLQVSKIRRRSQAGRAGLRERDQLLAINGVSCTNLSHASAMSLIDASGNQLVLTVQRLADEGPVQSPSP

T4: TJP3_1, O95049
T4 sequence (O95049 6-103, limits assumed, looked up): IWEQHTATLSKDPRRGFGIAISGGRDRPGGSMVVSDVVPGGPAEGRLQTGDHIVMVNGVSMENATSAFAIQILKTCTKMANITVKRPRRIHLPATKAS

T5: MPDZ_7, O75970
T5 sequence (O75970 1146-1253, limits assumed, looked up): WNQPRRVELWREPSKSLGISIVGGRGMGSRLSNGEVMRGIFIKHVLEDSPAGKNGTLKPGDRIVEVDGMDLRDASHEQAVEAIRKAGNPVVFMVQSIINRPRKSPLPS

T6: MLLT4, P55196
T6 sequence (P55196 1002-1103, limits assumed, looked up): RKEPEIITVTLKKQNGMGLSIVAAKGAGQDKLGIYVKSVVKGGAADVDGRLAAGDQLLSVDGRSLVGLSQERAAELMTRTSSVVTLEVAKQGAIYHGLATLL

T7: PDZD2_4, O15018
T7 sequence (O15018 723-823, limits assumed, looked up): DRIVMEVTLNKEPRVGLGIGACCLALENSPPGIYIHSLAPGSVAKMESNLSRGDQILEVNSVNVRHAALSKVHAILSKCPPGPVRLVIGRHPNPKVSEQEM

T8: PARD6G, Q9BYG4
T8 sequence (Q9BYG4 153-261, limits assumed, looked up): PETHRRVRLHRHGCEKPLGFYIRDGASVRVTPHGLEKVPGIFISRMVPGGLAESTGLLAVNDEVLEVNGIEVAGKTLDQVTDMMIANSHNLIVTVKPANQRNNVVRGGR

T9: SHROOM3, Q8TF72
T9 sequence (Q8TF72 20-120, limits assumed, looked up): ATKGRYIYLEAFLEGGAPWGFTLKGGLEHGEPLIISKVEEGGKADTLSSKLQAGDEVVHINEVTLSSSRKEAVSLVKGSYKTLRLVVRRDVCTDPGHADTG

T10: MPDZ_11, O75970
T10 sequence (O75970 1720-1817, limits assumed, looked up): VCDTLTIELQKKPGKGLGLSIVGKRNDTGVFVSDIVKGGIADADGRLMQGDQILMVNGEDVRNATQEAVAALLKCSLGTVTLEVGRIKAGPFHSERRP

T11: PTPN4, P29074
T11 sequence (P29074 512-599, limits assumed, looked up): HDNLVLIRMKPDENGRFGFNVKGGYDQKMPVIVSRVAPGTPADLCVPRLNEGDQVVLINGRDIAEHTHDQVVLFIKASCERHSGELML

T12: PDZD7_2, Q9H5P4
T12 sequence (Q9H5P4 205-303, limits assumed, looked up): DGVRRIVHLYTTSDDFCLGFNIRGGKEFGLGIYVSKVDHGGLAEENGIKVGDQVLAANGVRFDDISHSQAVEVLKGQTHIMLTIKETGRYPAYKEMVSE

T13: MPP5, Q8N3R9
T13 sequence (Q8N3R9 251-346, limits assumed, looked up): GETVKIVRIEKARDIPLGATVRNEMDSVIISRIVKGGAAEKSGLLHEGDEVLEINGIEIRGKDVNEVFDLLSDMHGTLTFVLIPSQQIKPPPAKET


Molecular target: PDLIM4, P50479
Sequence (P50479 1-83): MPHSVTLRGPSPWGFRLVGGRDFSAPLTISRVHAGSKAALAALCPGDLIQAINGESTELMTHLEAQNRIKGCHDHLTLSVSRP
Assay: holdup assay
Parameters: key: below the threshold = too weak to quantify, mostly under pKd 3.1 to 4
Details: plain residues with an end cap or a label only (N-terminal biotin on a linker: ttds)

| pKd | Binder |
| --- | --- |
| below the threshold | PKTPPTDTSV [KIR3DL3, Q8N743] |
| below the threshold | SVWLRKETRV [CYSLTR2, Q9NS75] |

Molecular target: T1, PDZD2_5, O15018
Assay: holdup assay
Parameters: key: below the threshold = too weak to quantify, mostly under pKd 3.1 to 4
Details: plain residues with an end cap or a label only (N-terminal biotin on a linker: ttds)

| pKd | Binder |
| --- | --- |
| below the threshold | PKTPPTDTSV [KIR3DL3, Q8N743] |
| below the threshold | SVWLRKETRV [CYSLTR2, Q9NS75] |

Molecular target: T2, PARD6B, Q9BYG5
Assay: holdup assay
Parameters: key: below the threshold = too weak to quantify, mostly under pKd 3.1 to 4
Details: plain residues with an end cap or a label only (N-terminal biotin on a linker: ttds)

| pKd | Binder |
| --- | --- |
| below the threshold | PKTPPTDTSV [KIR3DL3, Q8N743] |
| below the threshold | SVWLRKETRV [CYSLTR2, Q9NS75] |

Molecular target: T3, SYNPO2L, Q9H987
Assay: holdup assay
Parameters: key: below the threshold = too weak to quantify, mostly under pKd 3.1 to 4
Details: plain residues with an end cap or a label only (N-terminal biotin on a linker: ttds)

| pKd | Binder |
| --- | --- |
| below the threshold | PKTPPTDTSV [KIR3DL3, Q8N743] |
| below the threshold | SVWLRKETRV [CYSLTR2, Q9NS75] |

Molecular target: Inadl_7, Q8NI35
Sequence (Q8NI35 1219-1332): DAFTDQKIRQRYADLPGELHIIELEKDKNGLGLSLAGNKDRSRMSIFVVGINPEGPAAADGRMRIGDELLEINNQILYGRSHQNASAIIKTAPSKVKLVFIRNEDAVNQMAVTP
Assay: holdup assay
Parameters: key: below the threshold = too weak to quantify, mostly under pKd 3.1 to 4
Details: plain residues with an end cap or a label only (N-terminal biotin on a linker: ttds)

| pKd | Binder |
| --- | --- |
| below the threshold | SVWLRKETRV [CYSLTR2, Q9NS75] |

Molecular target: NHERF2_1, Q15599
Sequence (Q15599 9-91): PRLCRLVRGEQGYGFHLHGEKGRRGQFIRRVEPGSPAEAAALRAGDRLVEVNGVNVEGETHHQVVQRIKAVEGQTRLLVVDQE
Assay: holdup assay
Parameters: key: below the threshold = too weak to quantify, mostly under pKd 3.1 to 4
Details: plain residues with an end cap or a label only (N-terminal biotin on a linker: ttds)

| pKd | Binder |
| --- | --- |
| below the threshold | PKTPPTDTSV [KIR3DL3, Q8N743] |
| below the threshold | SVWLRKETRV [CYSLTR2, Q9NS75] |

Molecular target: SDCBP_1, O00560
Sequence (O00560 111-198): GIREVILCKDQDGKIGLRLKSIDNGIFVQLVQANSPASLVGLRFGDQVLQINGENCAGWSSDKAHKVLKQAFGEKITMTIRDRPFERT
Assay: holdup assay
Parameters: key: below the threshold = too weak to quantify, mostly under pKd 3.1 to 4
Details: plain residues with an end cap or a label only (N-terminal biotin on a linker: ttds)

| pKd | Binder |
| --- | --- |
| below the threshold | PKTPPTDTSV [KIR3DL3, Q8N743] |
| below the threshold | SVWLRKETRV [CYSLTR2, Q9NS75] |

Molecular target: O43166
Assay: holdup assay
Parameters: key: below the threshold = too weak to quantify, mostly under pKd 3.1 to 4
Details: plain residues with an end cap or a label only (N-terminal biotin on a linker: ttds)

| pKd | Binder |
| --- | --- |
| below the threshold | PKTPPTDTSV [KIR3DL3, Q8N743] |
| below the threshold | SVWLRKETRV [CYSLTR2, Q9NS75] |

Molecular target: Q9ULJ8
Assay: holdup assay
Parameters: key: below the threshold = too weak to quantify, mostly under pKd 3.1 to 4
Details: plain residues with an end cap or a label only (N-terminal biotin on a linker: ttds)

| pKd | Binder |
| --- | --- |
| below the threshold | PKTPPTDTSV [KIR3DL3, Q8N743] |
| below the threshold | SVWLRKETRV [CYSLTR2, Q9NS75] |

Molecular target: T4, TJP3_1, O95049
Assay: holdup assay
Parameters: key: below the threshold = too weak to quantify, mostly under pKd 3.1 to 4
Details: plain residues with an end cap or a label only (N-terminal biotin on a linker: ttds)

| pKd | Binder |
| --- | --- |
| below the threshold | PKTPPTDTSV [KIR3DL3, Q8N743] |
| below the threshold | SVWLRKETRV [CYSLTR2, Q9NS75] |

Molecular target: Q8TEW0
Assay: holdup assay
Parameters: key: below the threshold = too weak to quantify, mostly under pKd 3.1 to 4
Details: plain residues with an end cap or a label only (N-terminal biotin on a linker: ttds)

| pKd | Binder |
| --- | --- |
| below the threshold | PKTPPTDTSV [KIR3DL3, Q8N743] |
| below the threshold | SVWLRKETRV [CYSLTR2, Q9NS75] |

Molecular target: T5, MPDZ_7, O75970
Assay: holdup assay
Parameters: key: below the threshold = too weak to quantify, mostly under pKd 3.1 to 4
Details: plain residues with an end cap or a label only (N-terminal biotin on a linker: ttds)

| pKd | Binder |
| --- | --- |
| below the threshold | PKTPPTDTSV [KIR3DL3, Q8N743] |
| 4.33 | SVWLRKETRV [CYSLTR2, Q9NS75] |

Molecular target: MAGI3_4, Q5TCQ9
Sequence (Q5TCQ9 716-815): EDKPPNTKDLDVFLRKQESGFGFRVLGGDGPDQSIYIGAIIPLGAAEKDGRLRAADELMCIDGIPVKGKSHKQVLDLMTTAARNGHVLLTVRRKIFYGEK
Assay: holdup assay
Parameters: key: below the threshold = too weak to quantify, mostly under pKd 3.1 to 4
Details: plain residues with an end cap or a label only (N-terminal biotin on a linker: ttds)

| pKd | Binder |
| --- | --- |
| below the threshold | PKTPPTDTSV [KIR3DL3, Q8N743] |
| below the threshold | SVWLRKETRV [CYSLTR2, Q9NS75] |

Molecular target: T6, MLLT4, P55196
Assay: holdup assay
Parameters: key: below the threshold = too weak to quantify, mostly under pKd 3.1 to 4
Details: plain residues with an end cap or a label only (N-terminal biotin on a linker: ttds)

| pKd | Binder |
| --- | --- |
| below the threshold | PKTPPTDTSV [KIR3DL3, Q8N743] |
| below the threshold | SVWLRKETRV [CYSLTR2, Q9NS75] |

Molecular target: T7, PDZD2_4, O15018
Assay: holdup assay
Parameters: key: below the threshold = too weak to quantify, mostly under pKd 3.1 to 4
Details: plain residues with an end cap or a label only (N-terminal biotin on a linker: ttds)

| pKd | Binder |
| --- | --- |
| below the threshold | PKTPPTDTSV [KIR3DL3, Q8N743] |
| 4.48 | SVWLRKETRV [CYSLTR2, Q9NS75] |

Molecular target: MAST3, O60307
Sequence (O60307 945-1048): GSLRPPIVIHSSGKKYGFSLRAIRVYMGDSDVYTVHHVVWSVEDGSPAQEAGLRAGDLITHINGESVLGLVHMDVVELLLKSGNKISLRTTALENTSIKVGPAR
Assay: holdup assay
Parameters: key: below the threshold = too weak to quantify, mostly under pKd 3.1 to 4
Details: plain residues with an end cap or a label only (N-terminal biotin on a linker: ttds)

| pKd | Binder |
| --- | --- |
| below the threshold | PKTPPTDTSV [KIR3DL3, Q8N743] |
| below the threshold | SVWLRKETRV [CYSLTR2, Q9NS75] |

Molecular target: Q9UDY2
Assay: holdup assay
Parameters: key: below the threshold = too weak to quantify, mostly under pKd 3.1 to 4
Details: plain residues with an end cap or a label only (N-terminal biotin on a linker: ttds)

| pKd | Binder |
| --- | --- |
| below the threshold | PKTPPTDTSV [KIR3DL3, Q8N743] |
| below the threshold | SVWLRKETRV [CYSLTR2, Q9NS75] |

Molecular target: Q96HC4
Assay: holdup assay
Parameters: key: below the threshold = too weak to quantify, mostly under pKd 3.1 to 4
Details: plain residues with an end cap or a label only (N-terminal biotin on a linker: ttds)

| pKd | Binder |
| --- | --- |
| below the threshold | PKTPPTDTSV [KIR3DL3, Q8N743] |
| below the threshold | SVWLRKETRV [CYSLTR2, Q9NS75] |

Molecular target: T8, PARD6G, Q9BYG4
Assay: holdup assay
Parameters: key: below the threshold = too weak to quantify, mostly under pKd 3.1 to 4
Details: plain residues with an end cap or a label only (N-terminal biotin on a linker: ttds)

| pKd | Binder |
| --- | --- |
| below the threshold | PKTPPTDTSV [KIR3DL3, Q8N743] |
| below the threshold | SVWLRKETRV [CYSLTR2, Q9NS75] |

Molecular target: T9, SHROOM3, Q8TF72
Assay: holdup assay
Parameters: key: below the threshold = too weak to quantify, mostly under pKd 3.1 to 4
Details: plain residues with an end cap or a label only (N-terminal biotin on a linker: ttds)

| pKd | Binder |
| --- | --- |
| below the threshold | PKTPPTDTSV [KIR3DL3, Q8N743] |
| below the threshold | SVWLRKETRV [CYSLTR2, Q9NS75] |

Molecular target: T10, MPDZ_11, O75970
Assay: holdup assay
Parameters: key: below the threshold = too weak to quantify, mostly under pKd 3.1 to 4
Details: plain residues with an end cap or a label only (N-terminal biotin on a linker: ttds)

| pKd | Binder |
| --- | --- |
| below the threshold | PKTPPTDTSV [KIR3DL3, Q8N743] |
| below the threshold | SVWLRKETRV [CYSLTR2, Q9NS75] |

Molecular target: PREX1_1, Q8TCU6
Sequence (Q8TCU6 608-718): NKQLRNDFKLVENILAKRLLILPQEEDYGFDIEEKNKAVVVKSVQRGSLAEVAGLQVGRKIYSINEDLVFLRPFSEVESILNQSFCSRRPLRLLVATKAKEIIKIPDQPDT
Assay: holdup assay
Parameters: key: below the threshold = too weak to quantify, mostly under pKd 3.1 to 4
Details: plain residues with an end cap or a label only (N-terminal biotin on a linker: ttds)

| pKd | Binder |
| --- | --- |
| below the threshold | PKTPPTDTSV [KIR3DL3, Q8N743] |
| below the threshold | SVWLRKETRV [CYSLTR2, Q9NS75] |

Molecular target: T11, PTPN4, P29074
Assay: holdup assay
Parameters: key: below the threshold = too weak to quantify, mostly under pKd 3.1 to 4
Details: plain residues with an end cap or a label only (N-terminal biotin on a linker: ttds)

| pKd | Binder |
| --- | --- |
| below the threshold | PKTPPTDTSV [KIR3DL3, Q8N743] |
| 4.52 | SVWLRKETRV [CYSLTR2, Q9NS75] |

Molecular target: T12, PDZD7_2, Q9H5P4
Assay: holdup assay
Parameters: key: below the threshold = too weak to quantify, mostly under pKd 3.1 to 4
Details: plain residues with an end cap or a label only (N-terminal biotin on a linker: ttds)

| pKd | Binder |
| --- | --- |
| below the threshold | PKTPPTDTSV [KIR3DL3, Q8N743] |
| below the threshold | SVWLRKETRV [CYSLTR2, Q9NS75] |

Molecular target: T13, MPP5, Q8N3R9
Assay: holdup assay
Parameters: key: below the threshold = too weak to quantify, mostly under pKd 3.1 to 4
Details: plain residues with an end cap or a label only (N-terminal biotin on a linker: ttds)

| pKd | Binder |
| --- | --- |
| below the threshold | PKTPPTDTSV [KIR3DL3, Q8N743] |
| below the threshold | SVWLRKETRV [CYSLTR2, Q9NS75] |
